Results from PMC10914600, “Synthesis of lipid-linked precursors of the bacterial cell wall is governed by a feedback control mechanism in Pseudomonas aeruginosa” (Nature Microbiology, 2024).

Biological target: the molecule itself
Assay: cryo-EM structure; YES(T23P) complex (EcMraY(T23P), protein E, SlyD) co-expressed and purified in DDM; 5 mg/ml in 10 mM HEPES pH 7.5, 75 mM NaCl, 2% glycerol, 5 mM βME, 0.03% DDM, 1 mM E. coli total lipid extract; focused refinement of MraY alone after particle subtraction, final map 3.8 Å

B1: E. coli MraY(T23P) (enzyme)
chain: MLVWLAEHLVKYYSGFNVFSYLPFRAIVSLLTALFISLWMGPRMIAHLQKLSFGQVVRNDGPESHFSKRGTPTMGGIMILTAIVISVLLWAYPSNPYVWCVLVVLVGYGVIGFVDDYRKVVRKDTKGLIARWKYFWMSVIALGVAFALYLAGKDTPATQLVVPFFKDVMPQLGLFYILLAYFVIVGTGNAVNLTDGLDGLAIMPTVFVAGGFALVAWATGNMNFASYLHIPYLRHAGELVIVCTAIVGAGLGFLWFNTYPAQVFMGDVGSLALGGALGIIAVLLRQEFLLVIMGGVFVVETLSVILQVGSFKLRGQRIFRMAPIHHHYELKGWPEPRVIVRFWIISLMLVLIGLATLKVR
notes: MraY of E. coli, integral membrane enzyme that forms lipid I; The methods name the plasmid pRSFDuetEcMraY-E_(ID21) without the T23P change; also called ^EcMraY(T23P); MraY of the YES(T23P) complex; source: E. coli ∆slyD BL21(DE3), co-expressed with protein E and SlyD, purified as the YES complex (DDM, NiNTA, SEC)
stoichiometry N: 2
